The source of these data is patent publication US20210380978.

For the data set, the system named is HNRNPH1 isoform A (Homo sapiens). In words: MST. The settings on record: 50 mM Tris pH 8.0, 300 mM KCl, 0.02% NP-40, 10% glycerol, 0.5 mg/ml heparin, 22 C; 20 nM RNA.

For INCA1 major eCLIP peak 50-nt RNA oligo, the Kd was determined as 0.762 µM.

As a reminder, the Kd is the free concentration of one partner at which half of the binding sites on the other are occupied at equilibrium, for simple one-to-one binding.
